To fix the notation:
T1: recombinant human FGFR3 IIIc Fc fusion protein (human, UniProt P22607 23-375)
T1 construct: Bought reagent; also called rhFGFR3 IIIc Fc; not shown: Fc fragment (removable by Factor Xa)
T1 sequence (looked up): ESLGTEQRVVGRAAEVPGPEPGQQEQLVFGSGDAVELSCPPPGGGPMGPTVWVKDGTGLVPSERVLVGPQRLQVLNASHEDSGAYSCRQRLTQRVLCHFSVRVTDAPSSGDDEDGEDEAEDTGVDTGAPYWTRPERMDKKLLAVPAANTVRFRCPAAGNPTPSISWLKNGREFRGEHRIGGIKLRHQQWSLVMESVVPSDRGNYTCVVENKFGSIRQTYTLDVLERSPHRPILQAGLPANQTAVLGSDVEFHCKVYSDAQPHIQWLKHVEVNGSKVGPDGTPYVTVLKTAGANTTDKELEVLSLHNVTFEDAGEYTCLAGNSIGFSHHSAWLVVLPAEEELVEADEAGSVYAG

T2: recombinant human FGFR3 IIIb Fc fusion protein (human, UniProt P22607-2 23-377, limits assumed)
T2 construct: Bought reagent; the IIIb splice isoform is meant; also called rhFGFR3 IIIb Fc; hFGFR3 IIIb; not shown: Fc fragment (removable by Factor Xa, detected with anti-human IgG)
T2 sequence (looked up): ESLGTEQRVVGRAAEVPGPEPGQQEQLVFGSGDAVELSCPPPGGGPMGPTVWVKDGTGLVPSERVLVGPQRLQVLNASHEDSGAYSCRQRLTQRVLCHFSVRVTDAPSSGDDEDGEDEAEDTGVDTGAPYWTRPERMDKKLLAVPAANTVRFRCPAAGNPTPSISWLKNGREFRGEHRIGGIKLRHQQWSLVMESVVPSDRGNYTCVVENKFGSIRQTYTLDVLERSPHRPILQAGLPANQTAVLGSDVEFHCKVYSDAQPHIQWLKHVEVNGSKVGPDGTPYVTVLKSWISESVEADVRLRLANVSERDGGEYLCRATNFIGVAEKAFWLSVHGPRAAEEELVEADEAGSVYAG

B1: Chimeric 15D8 (antibody, human IgG1, kappa)
heavy: not shown
light: QIVLTQSPALMSASPGEKVTMTCSASSSVSYMYWYQQKPRSSPKPWIYLTSYLASGVPARFSGSGSGTSYSLTISSMEAEDAATYYCQQWSSYPLTFGAGTKLELKRTVAAPSVFIFPPSDEQLKSGTASVVCLLNNFYPREAKVQWKVDNALQSGNSQESVTEQDSKDSTYSLSSTLTLSKADYEKHKVYACEVTHQGLSSPVTKSFNRGEC
notes: Mouse variable regions with human IgG1 and human kappa constant regions; made in 293T cells; also called chimeric 15D8 antibody
B2: anti-FGFR3 monoclonal antibody 4E7 (antibody, mouse IgG1, kappa, V domains shown)
VH: EIQLQQSGPELVKPGASVKVSCKASGYAFTSYNMYWVKQSHGKSLEWIGYIDPYNGGTRYNQKFKGKATLTVDKSSSTAYMHLNSLTSEDSAVYYCAREGGNYEAWFAYWGQGTLVTVSA
VL: QIVLTQSPALMSASPGEKVTMTCSASSSVSYMYWYQQKPRSSPKPWIYLTSNLASGVPARFSGSGSGTSYSLTISSMEAEDAATYYCQQWSSNPLTFGAGTKLELKR
notes: Murine IgG1/kappa from hybridoma; also called 4E7 IgG1; 4E7 (7D12)
B3: 4E7 Fab (Fab, V domains shown, not shown: a dimerising Fc or GST)
VH: B2 VH
VL: B2 VL
notes: Fab fragment of murine 4E7; preparation not described; also called anti-FGFR3 Fab fragment 4E7
B4: anti-FGFR3 monoclonal antibody 7D12 (antibody, mouse IgG1, kappa, V domains shown)
VH: B2 VH
VL: B2 VL
notes: Murine IgG1/kappa from a separate hybridoma; also called 7D12 IgG1; 4E7 (7D12)
B5: 7D12 Fab (Fab, V domains shown, not shown: a dimerising Fc or GST)
VH: B2 VH
VL: B2 VL
notes: preparation not described; also called anti-FGFR3 Fab fragment 7D12
B6: anti-FGFR3 monoclonal antibody 27H2 (antibody, mouse IgG1, kappa, V domains shown)
VH: B2 VH with L70M
VL: B2 VL
notes: Murine IgG1/kappa from hybridoma; also called 27H2 IgG1; murine antibody 27H2
B7: 15D8 Fab (Fab, V domains shown, not shown: a dimerising Fc or GST)
VH: B2 VH with R59S
VL: B2 VL with N52Y, N93Y
notes: Fab fragment of murine 15D8; preparation not described; also called anti-FGFR3 Fab fragment 15D8
B8: 27H2 Fab (Fab, V domains shown, not shown: a dimerising Fc or GST)
VH: B2 VH with L70M
VL: B2 VL
notes: Fab fragment of murine 27H2; preparation not described; also called anti-FGFR3 Fab fragment 27H2
B9: anti-FGFR3 monoclonal antibody 2G4 (antibody, mouse IgG1, kappa, V domains shown)
VH: B2 VH with Y60D
VL: B2 VL
notes: Murine IgG1/kappa from hybridoma; also called 2G4 IgG1; murine antibody 2G4
B10: 2G4 Fab (Fab, V domains shown, not shown: a dimerising Fc or GST)
VH: B2 VH with Y60D
VL: B2 VL
notes: Fab fragment of murine 2G4; preparation not described; also called anti-FGFR3 Fab fragment 2G4

For orientation: Kd means the free concentration of one partner at which half of the binding sites on the other are occupied at equilibrium, for simple one-to-one binding. The term IC50 denotes the concentration at which inhibition is half-maximal. The term koff denotes the rate constant with which the complex falls apart. A word on the kon: it is the second-order rate constant of association.

Where a chain is given by its changes, count along the chain named.

In the first test the target is T1, recombinant human FGFR3 IIIc Fc fusion …. The experiment in a line: kinetic exclusion assay (KinExA), antibody and rhFGFR3 IIIc Fc in solution, room temperature. On the procedure: The binding affinities of monoclonal 15D8, chimeric 15D8, and humanized 15D8 antibodies for recombinant human FGFR3 IIIc Fc fusion protein was measured using a kinetic exclusion assay, KinExA® technology (Sapidyne Instruments, Inc.). First, beads were prepared for the purpose of detecting anti-FGFR3 antibody that is unbound to FGFR3 IIIc Fc. This was done by adding 1 ml recombinant human FGFR3IIIc Fc (R&D Systems, Inc.) 10 ug/ml in PBS to 200 mg polymethyl methacrylate (PMMA) hard beads. The suspension was mixed and rotated for two hours at room temperature. Next, the mixture was centrifuged and supernatant was discarded. The bead pellet was rinsed once with 1 ml BSA 10 mg/ml in PBS by incubation for 1 hour at room temperature with rotation. The beads were resuspended in 27 ml PBS with 0.02% NaN₃. Next, a fixed concentration of anti-FGFR3 antibody (0.5 nM) was incubated in solution with a series of FGFR3 IIIc Fc concentrations (started with 50 nM (in PBS BSA (1 mg/ml)) and serially diluted 1:2 in PBS BSA(1 mg/ml) to obtain 50 to 0.0122 nM FGFR3 III Fc) at room temperature for at least 4 hours to allow equilibrium to be reached. By measuring the amount of anti-FGFR3 antibody that is not bound to FGFR3 IIIc Fc, the KD was determined. Unbound anti-FGFR3 antibody was detected by allowing the anti-FGFR3 antibody/FGFR3 IIIc Fc solution to flow through the FGFR3 IIIc Fc PMMA beads. The anti-FGFR3 antibody captured by these beads was then detected with Cy5-conjugated anti-human secondary antibody 0.3 ug/ml (Jackson ImmunoResearch) or Cy5-conjugated anti-mouse secondary antibody (Jackson ImmunoResearch) 0.5 ug/ml in PBS BSA 1 mg/ml. The detected signal for captured anti-FGFR3 antibody is directly proportional to the remaining free binding sites, thus allowing KD determination. The experiments were repeated, varying the concentrations of anti-FGFR3 antibody or FGFR3 III Fc used in solution, and the KD was calculated with the KinExA® software using n-curve analysis.
In general terms: A kinetic exclusion assay measures how much of one partner remains free in solution.
On to B1, for which the equilibrium dissociation constant (Kd) amounted to 0.0503 nM.

The target in a further test is T2, recombinant human FGFR3 IIIb Fc fusion …. In words: ECL competition assay: inhibition of rhFGFR3 IIIb Fc binding to coated FGF1 (competitor FGF1). The method, then:
The antibodies were tested by ECL (Electrochemiluminescence) assay for inhibition of hFGFR3 IIIB binding to FGF-1. […] The plates then were washed 3 times with PBS and blocked with 200 μl of PBS containing 5% BSA (Sera Care Life Sciences, Catalog No. AP-4510-80) and 5 μg/mL heparin (Sigma, Catalog No. H4784) for 1 hour at room temperature. The antibodies (concentration range: 0.029-30 μg/mL) were incubated for 1 hour at room temperature with 1.7 μg/mL rhFGFR3 IIIb Fc (R&D Systems, Catalog No. 1264-FR-050) and 5 μg/mL heparin. After washing the plates 3 times with PBS, 25 μl of the antibody-receptor mixture was added to the plates for another hour at room temperature with agitation. The plates were washed three times with PBS and incubated with 25 μl of 1 μg/mL ST-anti-human IgG antibody (Meso Scale Discovery, Catalog No. R32AJ-1) for 1 hour at room temperature with agitation. The plates then were washed 3 times with PBS, and 150 μl of 1× read buffer (Meso Scale Discovery, Catalog No. R92TC-1) was added to each well before the plates were analyzed on a Sector Imager 2400 (Meso Scale Discovery) instrument.
As for B2, the IC50 was found to be 18.5 nM and the “Maximum Neutralization (%)” value came to 91.2%.
Turning to B3, the half-maximal inhibitory concentration (IC50) was determined as 69.5 nM and the “Maximum Neutralization (%)” value is 92.2%.
With B4, the IC50 turned out to be 13.3 nM and the “Maximum Neutralization (%)” value is 93.9%.
In the case of B5, the IC50 turned out to be 50 nM and the “Maximum Neutralization (%)” value turned out to be 88.8%.
On to B6, for which the half-inhibitory concentration (IC50) stood at 15.4 nM and the “Maximum Neutralization (%)” value is 99.6%.
B7: the IC50 came out at 63.8 nM and the “Maximum Neutralization (%)” value worked out at 91.7%.
Turning to B8, the half-maximal inhibitory concentration (IC50) came to 53.5 nM and the “Maximum Neutralization (%)” value came out at 95.8%.
Regarding B9, the 50% inhibitory concentration (IC50) was 11.1 nM and the “Maximum Neutralization (%)” value was 64.9%.
On to B10, for which the IC50 came to 65 nM and the “Maximum Neutralization (%)” value turned out to be 96.2%.

A further test concerns the target T1, recombinant human FGFR3 IIIc Fc fusion …. In words: SPR (Biacore T100), antibody captured on anti-mouse Ig, rhFGFR3 IIIc Fc as analyte, 37 C. On the procedure: (§1) The binding affinities and kinetics of interaction of the monoclonal antibodies (15D8, 27H2, 2G4, and 4E7(7D12)) produced in Example 1 against recombinant human FGFR3 (IIIb and IIIc isoforms) Fc fusion protein (rhFGFR3 IIIb Fc or rhFGFR3 IIIc Fc) were measured by surface plasmon resonance using a Biacore™ T100 (Biacore) instrument.
(§2) Rabbit anti-mouse immunoglobulins (Biacore, Catalog No. BR-1005-14) were immobilized on carboxymethylated dextran CM4 sensor chips (Biacore, Catalog No. BR-1005-34) by amine coupling (Biacore, Catalog No. BR-1000-50) using a standard coupling protocol according to manufacturer's instructions.
(§3) The antibodies were captured in an individual flow cell at a flow rate of 10 μl/min. Injection time was varied for each antibody to yield approximately 40-50 RU of antibody captured for each cycle. Buffer or rhFGFR3 IIIb Fc (R&D Systems, Catalog No. 1264-FR-050) or rhFGFR3 IIIc Fc (R&D Systems, Catalog No. 766-FR-050) diluted in running buffer was injected sequentially over a reference surface (no antibody captured) and the active surface (antibody to be tested) for 300 sec at 60 μl/min. The dissociation phase was monitored for 30 minutes. The surface was then regenerated with two 60-seconds injection of 10 mM Glycine-HCl, pH 1.7 (made from Glycine pH 1.5 (Biacore, Catalog No. BR-1003-54) and pH 2.0 (Biacore, Catalog No. BR-1003-55)) at a flow rate of 60 μl/min. rhFGFR3 Fc concentrations tested were 0.62 nM to 40 nM.
B2: the Kd amounted to 2.2 nM, the koff turned out to be 0.00017 s⁻¹ and the kon is 94000 M⁻¹ s⁻¹.
On to B6, for which the dissociation constant Kd is 2.1 nM, the koff was 0.0002 s⁻¹ and the on-rate constant (kon) was found to be 96000 M⁻¹ s⁻¹.
As for B9, the Kd was determined as 2.6 nM, the dissociation rate constant (koff) was 0.00026 s⁻¹ and the on-rate (kon) worked out at 100000 M⁻¹ s⁻¹.

Another test addresses T2, recombinant human FGFR3 IIIb Fc fusion …. The experiment in a line: SPR (Biacore T100), antibody captured on anti-mouse Ig, rhFGFR3 IIIb Fc as analyte, 25 C. On the procedure: as §1, §2, §3
Turning to B2, the equilibrium dissociation constant (Kd) was determined as 3.3 nM, the koff was 0.00037 s⁻¹ and the on-rate constant (kon) stood at 150000 M⁻¹ s⁻¹.
As to B6, the Kd was found to be 3 nM, the koff worked out at 0.00026 s⁻¹ and the on-rate constant (kon) turned out to be 90000 M⁻¹ s⁻¹.
With B9, the Kd came out at 3.2 nM, the koff turned out to be 0.00032 s⁻¹ and the kon stood at 120000 M⁻¹ s⁻¹.

A further test shares this target. The experiment in a line: SPR (Biacore T100), antibody captured on anti-mouse Ig, rhFGFR3 IIIb Fc as analyte, 37 C. The method, then:
as §1, §2, §3
In general terms: SPR reads the build-up and loss of mass on a sensor chip optically.
In the case of B2, the Kd was 3.3 nM, the dissociation rate constant (koff) came to 0.00023 s⁻¹ and the on-rate constant (kon) was 74000 M⁻¹ s⁻¹.
With B6, the Kd came out at 2.1 nM, the koff amounted to 0.00019 s⁻¹ and the on-rate constant (kon) amounted to 100000 M⁻¹ s⁻¹.
Regarding B9, the dissociation constant (Kd) worked out at 1.4 nM, the koff was 0.00023 s⁻¹ and the on-rate (kon) worked out at 150000 M⁻¹ s⁻¹.

A further test addresses T1, recombinant human FGFR3 IIIc Fc fusion …. In words: SPR (Biacore T100), antibody captured on anti-mouse Ig, rhFGFR3 IIIc Fc as analyte, 25 C. On the procedure:
as §1, §2, §3
Consider B2, for which the Kd amounted to 2.6 nM, the dissociation rate constant (koff) was determined as 0.00019 s⁻¹ and the kon turned out to be 110000 M⁻¹ s⁻¹.
Turning to B6, the dissociation constant Kd came to 2.1 nM, the koff was found to be 0.00016 s⁻¹ and the kon is 75000 M⁻¹ s⁻¹.
B9: the Kd is 1.1 nM, the dissociation rate constant (koff) was determined as 0.00011 s⁻¹ and the association rate constant (kon) amounted to 100000 M⁻¹ s⁻¹.
